Results from publication PMC9098913, “In vitro reconstitution of Escherichia coli divisome activation” (Nature Communications, 2022).

System: FtsA self-interaction
Assay: FRET self-interaction of His-tagged FtsAs (and His-SUMO control) on Tris-NTA membranes
Assay type: binding, E. coli
Method: To study colocalization of His-tagged variants of FtsA, 0.5–1 µM of Cy5 labelled His-tagged FtsAs were added to the chamber, incubated for 20 min and washed 6x with reaction buffer. […] To control the density of membrane-bound FtsA, SUVs without and with Tris-NTA lipids were mixed to obtain the respective Tris-NTA concentrations. To perform FRET/FRAP experiments, equimolar concentrations of Cy3 and Cy5 labelled His-tagged FtsAs (total 0.5–1 µM) or His-SUMO-Cys were added to a chamber and treated as above. […] FRAP experiments were performed as described before.
Bleaching the acceptor dye leads to an increase in the donor intensity, which can be used to quantify the Foerster Resonance energy transfer (FRET)[48]. FRET efficiency was quantified with E%=Ipost/Ipost+Ipre⋅100 , where Ipost is the intensity of the […] and Ipre is the […]. […] To extract the contribution of both processes, we adjusted a routine recently published by Gerganova et al.[33]. In short, the code provides the contribution of both modes of recovery by analysing the shape of the fluorescence recovery profile. […] Contribution of diffusion leads to a change of the slope of the outer borders of the bleached region (S4h right). Thus, by measuring the change of the slope of the border recovery, diffusion and simple on/off binding can be distinguished. We developed “FRAPdiff”, a graphical user interface, which uses the original fit routine by David Rutkowski. It can be used directly on.tiff movies with annotated bleach regions as ImageJ ROIs. In addition, we added optional bleach correction, user selectable projection axis (x or y), and optional mirroring of the recovery profiles, if bleaching was not symmetric. The original fit routine for estimating the recovery and diffusion dynamics can be found at https://github.com/davidmrutkowski/1DReflectingDiffusion. FRAPdiff is available at 10.5281/zenodo.6400639[49] under the GPLv3 open-source license.

B1: FtsA R286W-His6: FtsA R286W (1-405) with amphipathic helix replaced by C-terminal His-tag (protein)
chain: MIKATDRKLVVGLEIGTAKVAALVGEVLPDGMVNIIGVGSCPSRGMDKGGVNDLESVVKCVQRAIDQAELMADCQISSVYLALSGKHISCQNEIGMVPISEEEVTQEDVENVVHTAKSVRVRDEHRVLHVIPQEYAIDYQEGIKNPVGLSGVRMQAKVHLITCHNDMAKNIVKAVERCGLKVDQLIFAGLASSYSVLTEDERELGVCVVDIGGGTMDIAVYTGGALRHTKVIPYAGNVVTSDIAYAFGTPPSDAEAIKVRHGCALGSIVGKDESVEVPSVGGRPPWSLQRQTLAEVIEPRYTELLNLVNEEILQLQEKLRQQGVKHHLAAGIVLTGGAAQIEGLAACAQRVFHTQVRIGAPLNITGLTDYAQEPYYSTAVGLLHYGKESHLNGEAEVEKRVTASV
modifications: Cy3 or Cy5 at the N-terminus in the labelled form (sortagging as for native FtsA); left off: TwinStrep-SUMO, N-terminal, cleaved | 5xGlycine tag, N-terminal, kept | His6, C-terminal, kept
For B1, which FRET efficiency (0.1% Tris NTA, + FtsZ; Exp1) is on record?
Its FRET efficiency is 0.51%.

And the FRET efficiency (0.1% Tris NTA, + FtsZ; Exp2)?
Its FRET efficiency is 0.32%.

What about the FRET efficiency (0.1% Tris NTA, + FtsZ; mean, n = 2) of the same molecule?
Its FRET efficiency is 0.42%.

And the FRET efficiency (0.1% Tris NTA, without FtsZ; Exp1)?
The FRET efficiency was 0.42%.

What about the FRET efficiency (0.1% Tris NTA, without FtsZ; Exp2) of the same molecule?
Its FRET efficiency is 0.20%.

What about the FRET efficiency (0.1% Tris NTA, without FtsZ; mean, n = 2) of the same molecule?
The FRET efficiency was 0.31%.

What about the FRET efficiency (0.4% Tris NTA; + FtsZ; Exp1) of the same molecule?
The FRET efficiency was 4.18%.

What about the FRET efficiency (0.4% Tris NTA; + FtsZ; Exp2) of the same molecule?
Its FRET efficiency is 2.69%.

And the FRET efficiency (0.4% Tris NTA; + FtsZ; Mean, n = 2)?
The FRET efficiency was 3.43%.

What about the FRET efficiency (0.4% Tris NTA; without FtsZ; Exp1) of the same molecule?
The FRET efficiency was 3.62%.

And the FRET efficiency (0.4% Tris NTA; without FtsZ; Exp2)?
The FRET efficiency was 3.61%.

And the FRET efficiency (0.4% Tris NTA; without FtsZ; Mean, n = 2)?
The FRET efficiency was 3.62%.

What about the FRET efficiency (0.6% Tris NTA; + FtsZ; Exp1) of the same molecule?
Its FRET efficiency is 3.82%.

What about the FRET efficiency (0.6% Tris NTA; + FtsZ; Exp2) of the same molecule?
Its FRET efficiency is 8.42%.

And the FRET efficiency (0.6% Tris NTA; + FtsZ; Exp3)?
Its FRET efficiency is 3.49%.

What about the FRET efficiency (0.6% Tris NTA; + FtsZ; Mean, n = 3) of the same molecule?
Its FRET efficiency is 5.24%.

And the FRET efficiency (0.6% Tris NTA; without FtsZ; Exp1)?
The FRET efficiency was 2.27%.

And the FRET efficiency (0.6% Tris NTA; without FtsZ; Exp2)?
Its FRET efficiency is 7.55%.

What about the FRET efficiency (0.6% Tris NTA; without FtsZ; Exp3) of the same molecule?
The FRET efficiency was 3.60%.

And the FRET efficiency (0.6% Tris NTA; without FtsZ; Mean, n = 3 (His6-SUMO n = 2))?
Its FRET efficiency is 4.47%.

And the FRET efficiency (0.8% Tris NTA; + FtsZ; Exp1)?
Its FRET efficiency is 12.66%.

What about the FRET efficiency (0.8% Tris NTA; + FtsZ; Exp2) of the same molecule?
Its FRET efficiency is 13.96%.

What about the FRET efficiency (0.8% Tris NTA; + FtsZ; Exp3) of the same molecule?
The FRET efficiency was 6.95%.

And the FRET efficiency (0.8% Tris NTA; + FtsZ; Mean, n = 3)?
The FRET efficiency was 11.19%.

And the FRET efficiency (0.8% Tris NTA; without FtsZ; Exp1)?
The FRET efficiency was 11.90%.

What about the FRET efficiency (0.8% Tris NTA; without FtsZ; Exp2) of the same molecule?
The FRET efficiency was 13.18%.

What about the FRET efficiency (0.8% Tris NTA; without FtsZ; Exp3) of the same molecule?
Its FRET efficiency is 7.63%.

And the FRET efficiency (0.8% Tris NTA; without FtsZ; Mean, n = 3 (His6-SUMO n = 2))?
Its FRET efficiency is 10.90%.

What about the FRET efficiency (1% Tris NTA; + FtsZ; Exp1) of the same molecule?
Its FRET efficiency is 18.63%.

And the FRET efficiency (1% Tris NTA; + FtsZ; Exp2)?
The FRET efficiency was 11.68%.

What about the FRET efficiency (1% Tris NTA; + FtsZ; Exp3) of the same molecule?
The FRET efficiency was 16.69%.

And the FRET efficiency (1% Tris NTA; + FtsZ; Exp4)?
Its FRET efficiency is 5.28%.

And the FRET efficiency (1% Tris NTA; + FtsZ; Mean, n = 3 (R286W-His6 n = 4))?
The FRET efficiency was 13.07%.

And the FRET efficiency (1% Tris NTA; without FtsZ; Exp1)?
The FRET efficiency was 13.30%.

What about the FRET efficiency (1% Tris NTA; without FtsZ; Exp2) of the same molecule?
Its FRET efficiency is 11.28%.

And the FRET efficiency (1% Tris NTA; without FtsZ; Exp3)?
The FRET efficiency was 16.33%.

What about the FRET efficiency (1% Tris NTA; without FtsZ; Exp4) of the same molecule?
The FRET efficiency was 5.94%.

What about the FRET efficiency (1% Tris NTA; without FtsZ; Mean, n = 3 (R286W-His6 n = 4)) of the same molecule?
Its FRET efficiency is 11.71%.

And the FRET efficiency (2% Tris NTA; + FtsZ; Exp1)?
Its FRET efficiency is 13.95%.

And the FRET efficiency (2% Tris NTA; + FtsZ; Exp2)?
Its FRET efficiency is 11.07%.

What about the FRET efficiency (2% Tris NTA; + FtsZ; Mean, n = 2) of the same molecule?
Its FRET efficiency is 12.51%.

And the FRET efficiency (2% Tris NTA; without FtsZ; Exp1)?
Its FRET efficiency is 11.54%.

What about the FRET efficiency (2% Tris NTA; without FtsZ; Exp2) of the same molecule?
The FRET efficiency was 10.61%.

And the FRET efficiency (2% Tris NTA; without FtsZ; Mean, n = 2)?
The FRET efficiency was 11.08%.

What about the FRET efficiency (Tris 0.40 %, + FtsZ; mean) of the same molecule?
Its FRET efficiency is 3.43%.

What about the FRET efficiency (Tris 0.40 %, without FtsZ; mean) of the same molecule?
The FRET efficiency was 3.61%.

What about the FRET efficiency (Tris 0.60 %, + FtsZ; mean) of the same molecule?
The FRET efficiency was 5.24%.

And the FRET efficiency (Tris 0.60 %, without FtsZ; mean)?
The FRET efficiency was 4.47%.

What about the FRET efficiency (Tris 0.80 %, + FtsZ; mean) of the same molecule?
The FRET efficiency was 11.19%.

What about the FRET efficiency (Tris 0.80 %, without FtsZ; mean) of the same molecule?
Its FRET efficiency is 10.90%.

And the FRET efficiency (Tris 1.00 %, + FtsZ; mean)?
The FRET efficiency was 13.07%.

What about the FRET efficiency (Tris 1.00 %, without FtsZ; mean) of the same molecule?
The FRET efficiency was 11.71%.

What about the FRET efficiency (Tris 2.00 %, + FtsZ; mean) of the same molecule?
The FRET efficiency was 12.51%.

What about the FRET efficiency (Tris 2.00 %, without FtsZ; mean) of the same molecule?
Its FRET efficiency is 11.08%.

And the FRET efficiency ([…] Tris NTA, + FtsZ; Exp1)?
The FRET efficiency was 3.67%.

What about the FRET efficiency ([…] Tris NTA, + FtsZ; Exp2) of the same molecule?
Its FRET efficiency is 2.76%.

What about the FRET efficiency ([…] Tris NTA, + FtsZ; mean, n = 2) of the same molecule?
Its FRET efficiency is 3.22%.

What about the FRET efficiency ([…] Tris NTA, without FtsZ; Exp1) of the same molecule?
The FRET efficiency was 3.93%.

What about the FRET efficiency ([…] Tris NTA, without FtsZ; Exp2) of the same molecule?
Its FRET efficiency is 1.52%.

What about the FRET efficiency ([…] Tris NTA, without FtsZ; mean, n = 2) of the same molecule?
The FRET efficiency was 2.73%.

And the FRET efficiency ([…] Tris NTA; + FtsZ; Exp1)?
The FRET efficiency was 8.55%.

What about the FRET efficiency ([…] Tris NTA; + FtsZ; Exp2) of the same molecule?
The FRET efficiency was 12.05%.

What about the FRET efficiency ([…] Tris NTA; + FtsZ; Exp3) of the same molecule?
The FRET efficiency was 9.96%.

What about the FRET efficiency ([…] Tris NTA; + FtsZ; Mean, n = 3) of the same molecule?
The FRET efficiency was 10.19%.

And the FRET efficiency ([…] Tris NTA; without FtsZ; Exp1)?
Its FRET efficiency is 9.50%.

And the FRET efficiency ([…] Tris NTA; without FtsZ; Exp2)?
Its FRET efficiency is 13.25%.

And the FRET efficiency ([…] Tris NTA; without FtsZ; Exp3)?
Its FRET efficiency is 7.80%.

And the FRET efficiency ([…] Tris NTA; without FtsZ; Mean, n = 3)?
The FRET efficiency was 10.18%.

And the “FRET increase with FtsNcyto-His” value ([…] Tris-NTA)?
Its value is “more than twofold”.

What about the FRET efficiency ([…] Tris-NTA; + N (FtsNcyto); mean) of the same molecule?
Its FRET efficiency is 18.47%.

What about the FRET efficiency ([…] Tris-NTA; + N/Z (FtsNcyto and FtsZ); mean) of the same molecule?
The FRET efficiency was 17.73%.

And the FRET efficiency ([…] Tris-NTA; + N/Z; Exp. 1)?
The FRET efficiency was 21.67%.

What about the FRET efficiency ([…] Tris-NTA; + N/Z; Exp. 2) of the same molecule?
Its FRET efficiency is 17.33%.

What about the FRET efficiency ([…] Tris-NTA; + N/Z; Exp. 3) of the same molecule?
Its FRET efficiency is 14.20%.

What about the FRET efficiency ([…] Tris-NTA; + N; Exp. 1) of the same molecule?
The FRET efficiency was 22.02%.

What about the FRET efficiency ([…] Tris-NTA; + N; Exp. 2) of the same molecule?
The FRET efficiency was 17.07%.

And the FRET efficiency ([…] Tris-NTA; + N; Exp. 3)?
Its FRET efficiency is 16.35%.

What about the FRET efficiency ([…] Tris-NTA; + Z (FtsZ); mean) of the same molecule?
The FRET efficiency was 8.99%.

And the FRET efficiency ([…] Tris-NTA; + Z; Exp. 1)?
Its FRET efficiency is 5.42%.

And the FRET efficiency ([…] Tris-NTA; + Z; Exp. 2)?
Its FRET efficiency is 8.55%.

What about the FRET efficiency ([…] Tris-NTA; + Z; Exp. 3) of the same molecule?
The FRET efficiency was 12.05%.

What about the FRET efficiency ([…] Tris-NTA; + Z; Exp. 4) of the same molecule?
Its FRET efficiency is 9.96%.

And the FRET efficiency ([…] Tris-NTA; alone; Exp. 1)?
Its FRET efficiency is 4.90%.

What about the FRET efficiency ([…] Tris-NTA; alone; Exp. 2) of the same molecule?
Its FRET efficiency is 9.50%.

And the FRET efficiency ([…] Tris-NTA; alone; Exp. 3)?
The FRET efficiency was 13.25%.

And the FRET efficiency ([…] Tris-NTA; alone; Exp. 4)?
Its FRET efficiency is 7.80%.

What about the FRET efficiency ([…] Tris-NTA; alone; mean) of the same molecule?
The FRET efficiency was 8.86%.

And the FRET efficiency (with FtsNcyto attached to the membrane; mean ± s.d.; p-value 0.03)?
The FRET efficiency was 17.73 ± 3.06%.
